In patent publication US20260258084A1, “New Peptides as Selective IL-23 Receptor Antagonists” (Sanofi, priority 2022, published 2026):
Starred links: 1 amine or outer side, 2 acyl side, 3 side chain; linkers in the order of their positions; H or OH if unused. Positions of bridges follow the written chain, without caps; N, C: chain ends. Non-standard residues stand in square brackets, D forms with d. No end group written: not given here. Yde = (2S)-2-amino-3-[4-[2-(dimethylamino)ethoxy]phenyl]propanoic acid, CN(C)CCOc1ccc(C[C@H](N[*:1])C(=O)[*:2])cc1; Trp(7-Me) = Cc1cccc2c(C[C@H](N)C(=O)O)c[nH]c12; Trp(1-Me) = Cn1cc(C[C@H](N)C(=O)O)c2ccccc21; αMeLys(Me2) = CN(C)CCCC[C@](C)(N)C(=O)O; 2Nal = N[C@@H](Cc1ccc2ccccc2c1)C(=O)O; εLys = N[C@@H](CCCCN[*:1])C(=O)[*:2]; 3Pal = N[C@@H](Cc1cccnc1)C(=O)O; Dad = desamino-aspartamic acid; Lys(Me) = CNCCCC[C@H](N)C(=O)O; αMeL = CC(C)C[C@](C)(N)C(=O)O; Thp = NC1(C(=O)O)CCOCC1; Abu = CC[C@H](N)C(=O)O; Aib = CC(C)(N)C(=O)O; Ava = NCCCCC(=O)O; Sar = CNCC(=O)O

T1: IL-23 receptor on the surface of HEK-Blue IL-23 cells (UniProt Q5VWK5 24-629, limits assumed)
T1 sequence (looked up): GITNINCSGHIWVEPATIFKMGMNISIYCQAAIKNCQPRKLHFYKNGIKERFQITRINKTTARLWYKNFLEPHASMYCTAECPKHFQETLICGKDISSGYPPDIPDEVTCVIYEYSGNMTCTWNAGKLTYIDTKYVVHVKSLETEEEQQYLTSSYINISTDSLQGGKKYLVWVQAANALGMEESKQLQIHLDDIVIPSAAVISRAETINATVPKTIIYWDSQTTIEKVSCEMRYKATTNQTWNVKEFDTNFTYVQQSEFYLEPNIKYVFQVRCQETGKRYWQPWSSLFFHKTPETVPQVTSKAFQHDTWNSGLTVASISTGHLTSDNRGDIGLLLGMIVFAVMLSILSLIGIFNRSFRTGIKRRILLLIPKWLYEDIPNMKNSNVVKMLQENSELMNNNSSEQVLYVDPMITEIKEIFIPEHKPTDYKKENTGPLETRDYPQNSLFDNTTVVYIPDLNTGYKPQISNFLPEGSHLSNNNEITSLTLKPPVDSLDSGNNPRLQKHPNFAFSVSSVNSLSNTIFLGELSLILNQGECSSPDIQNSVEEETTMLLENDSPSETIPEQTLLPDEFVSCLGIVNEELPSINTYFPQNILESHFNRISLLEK

B1: Compound of SEQ ID NO: 154 (peptide)
peptide: [Dad]CNT[Trp(7-Me)]LC[Yde][2Nal][αMeLys(Me2)]KN[3Pal][Sar]-NH2
modifications: lactam (positions not given here); disulfide 2-7; not fully specified (bridges); printed as Dad(§1)-C(@2)-N-T-Wim-L-C(@2)-Yde-Nal-MKdm-K(§1)-N-Pal-Sar-NH2
B2: Compound of SEQ ID NO: 122 (peptide)
peptide: [Dad][Abu]K[Trp(7-Me)]K(Ac)C[Yde][2Nal][Thp]KN[3Pal][Sar]-NH2
modifications: lactam (positions not given here); thioether 2-6; not fully specified (residue 3, bridges); printed as Dad(§1)-Abu(§3)(@2)-K[aAc](@3)-Wim-K[Ac]-C(@2)-Yde-Nal-Thp-K(§1)-N-Pal-Sar-NH2; also: K[aAc]: Abu2 bonded to epsilon-NH2 of acetylated Lys3, acetyl presumably on alpha-amine
B3: Compound of SEQ ID NO: 157 (peptide)
peptide: [Dad]CNT[Trp(7-Me)]K(Ac)C[Yde][2Nal][Aib]KN[3Pal][Sar]-NH2
modifications: lactam (positions not given here); disulfide 2-7; not fully specified (bridges); printed as Dad(§1)-C(@2)-N-T-Wim-K[Ac]-C(@2)-Yde-Nal-Aib-K(§1)-N-Pal-Sar-NH2
B4: Compound of SEQ ID NO: 155 (peptide)
peptide: [Dad]CNT[Trp(7-Me)]LC[Yde][2Nal][αMeLys(Me2)]KA[3Pal][Sar]-NH2
modifications: lactam (positions not given here); disulfide 2-7; not fully specified (bridges); printed as Dad(§1)-C(@2)-N-T-Wim-L-C(@2)-Yde-Nal-MKdm-K(§1)-A-Pal-Sar-NH2
B5: Compound of SEQ ID NO: 151 (peptide)
peptide: [Dad]CNT[Trp(7-Me)]K(Ac)C[Yde][2Nal][αMeLys(Me2)]KN[3Pal][Sar]-NH2
modifications: lactam (positions not given here); disulfide 2-7; not fully specified (bridges); printed as Dad(§1)-C(@2)-N-T-Wim-K[Ac]-C(@2)-Yde-Nal-MKdm-K(§1)-N-Pal-Sar-NH2
B6: Compound of SEQ ID NO: 149 (peptide)
peptide: [Ava]CK[Trp(7-Me)]K(Ac)C[Yde][2Nal][αMeLys(Me2)]EN[3Pal][Sar]-NH2
modifications: lactam N-10; disulfide 2-6; not fully specified (residue 3); printed as Apt(§1)-C(§3)(@2)-K[aAc](@3)-Wim-K[Ac]-C(@2)-Yde-Nal-MKdm-E(§1)-N-Pal-Sar-NH2; also: K3 acetylated (K[aAc]), acetyl site not given here, ε-NH2 takes the Cys2 bond
B7: Compound of SEQ ID NO: 126 (peptide)
peptide: [Ava]CK[Trp(1-Me)]K(Ac)C[Yde][2Nal][Thp]EN[3Pal][Sar]-NH2
modifications: lactam N-10; disulfide 2-6; not fully specified (residue 3); printed as Apt(§1)-C(§3)(@2)-K[aAc](@3)-Wme-K[Ac]-C(@2)-Yde-Nal-ThpE(§1)-N-Pal-Sar-NH2; also: K[aAc]: Cys2 bonded to epsilon-NH2 of acetylated Lys3, acetyl presumably on alpha-amine
B8: Compound of SEQ ID NO: 156 (peptide)
peptide: [Dad]CNT[Trp(7-Me)]K(Ac)C[Yde][2Nal][αMeLys(Me2)][Lys(Me)]N[3Pal][Sar]-NH2
modifications: lactam (positions not given here); disulfide 2-7; not fully specified (bridges); printed as Dad(§1)-C(@2)-N-T-Wim-K[Ac]-C(@2)-Yde-Nal-MKdm-Kme(§1)-N-Pal-Sar-NH2
B9: Compound of SEQ ID NO: 158 (peptide)
peptide: [Dad]C[εLys][Trp(7-Me)]LC[Yde][2Nal][αMeL]KN[3Pal][Sar]-NH2
modifications: disulfide 2-6; lactam 1-10; also: K3 acetylated (K[aAc]), acetyl site not given here, ε-NH2 takes the Cys2 bond
B10: Compound of SEQ ID NO: 150 (peptide)
peptide: [Dad]CNT[Trp(7-Me)]LC[Yde][2Nal][αMeLys(Me2)]KN[3Pal]-NH2
modifications: lactam (positions not given here); disulfide 2-7; not fully specified (bridges); printed as Dad(§1)-C(@2)-N-T-Wim-L-C(@2)-Yde-Nal-MKdm-K(§1)-N-Pal-NH2

target: T1, IL-23 receptor on the surface of …; assay: cell-based or functional assay

Binder | pSTAT3 (nM)
B1 | 0.08 nM
B2 | 0.37 nM
B3 | 0.06 nM
B4 | 0.1 nM
B5 | 0.06 nM
B6 | 0.04 nM
B7 | 0.11 nM
B8 | 0.08 nM
B9 | 0.39 nM
XCNTWQCXXXDNG (not fully specified; Ahx(§1)-C(@2)-N-T-W-Q-C(@2)-Yae-Nal-Aib-D(§1)-N-G-NH2) [Compound of SEQ ID NO: 9] | 65 nM
B10 | 0.13 nM
